# What was measured:
# [1] = test system: X. oryzae and X. oryzicola; format: in vivo; settings: transgenic rice, pIPG787
# [2] = test system: R. solanacearum strain Rsp446; format: in vivo, Ralstonia solanacearum; settings: seeded T1 tobacco, three experiments each, 60 days
molecule,measurement,setting,value
"BombBC: Bacteriophage Outer Membrane Breaching protein of Xanthomonas phage P15 (Xp15) ORF BC, 17.9 kD, SEQ ID NO. 17 (protein, listed as Xanthomonas campestris) MSDQTDTTQTTPAEKAPPKEIIRGRMPIAVVALARFGSQSTTTTKAAADALGTTVGKIDDIRKNRNFAYVTADFKPTEAQKADGIEWLKRHPVGADALIEELQNLPVATAEESAAFEQVRASARGQNAKTAEGEVAQAGGGNRRKKKEKPAEAGEVQNPPAADGDSLLS",resistance to Gram-negative bacterial pathogens,[1],will be resistant
same,resistance conferred to transgenic tobacco,[2],strong resistance
